The results in this text go back to patent US20230035037A1 (published 2023).

The target of assay [1] is … (SEQ ID NO: 1) presented by HLA-A*0201 on peptide-pulsed cells (human). Kind of assay: cell-based or functional assay.
Assay [2] addresses … (SEQ ID NO: 16) presented by HLA-A*0201 on peptide-pulsed cells (human). Kind of assay: cell-based or functional assay.
In assay [3] the target is … (SEQ ID NO: 18) presented by HLA-A*0201 on peptide-pulsed cells (human). Kind of assay: cell-based or functional assay.
Assay [4] has as its target … (SEQ ID NO: 2) presented by HLA-A*0201 on cells (human). The assay can be described thus: cell-based or functional assay.
The target of assay [5] is T1, LRPAP1 (signal peptide) peptide on HLA-A*02:01 (human).
T1 peptide: FLGPWPAAS
The assay can be described thus: titration of short peptide on HLA-A*0201 positive T2 cells or EBV-JY cells; cytokine secretion by the LRPAP1-specific T cell clone (FIG. 1d, 1e); T cell clone or line.

Assay [6] has as its target T2, LRPAP1 (signal peptide), V-variant: C-terminal serine replaced by valine peptide on HLA-A*02:01 (human).
T2 peptide: FLGPWPAAV
Described as above.

In assay [7] the target is T3, LRPAP1 (signal peptide), I-variant at position 9 peptide on HLA-A*02:01 (human).
T3 peptide: FLGPWPAAI
The assay is described as above.

The target in assay [8] is T4, LRPAP1 (signal peptide), L-variant at position 9 peptide on HLA-A*02:01 (human).
T4 peptide: FLGPWPAAL
The assay is described as above.

B1: TCR of the LRPAP1-specific T cell clone 1A8 (TCR, V domains shown)
Valpha: RKEVEQDPGPFNVPEGATVAFNCTYSNSASQSFFWYRQDCRKEPKLLMSVYSSGNEDGRFTAQLNRASQYISLLIRDSKLSDSATYLCVVMGYGQNFVFGPGTRLSVLP
Vbeta: GAVVSQHPSWVICKSGTSVKIECRSLDFQATTMFWYRQFPKQSLMLMATSNEGSKATYEQGVEKDKFLINHASLTLSTLTVTSAHPEDSSFYICSAMGRQSTDTQYFGPGTRLTVL
In the case of B1, the EC50 of the T cell response to peptide-pulsed HLA-A*0201 positive cells (functional T cell avidity) in assay [1] was determined as 0.1 µg/mL; in assay [2] it was 0.7 µg/mL; in assay [3], 3.7 µg/mL; in assay [4], 1.9 µg/mL. In assay [1], the T cell activation, V-peptide against S-peptide stood at 19 fold. Further, the EC50 of peptide is 1.9 µg/mL in assay [5], 0.1 µg/mL in assay [6], 0.7 µg/mL in assay [7] and 3.7 µg/mL in assay [8].
